Assay results published in patent publication US20130315928A1.

What was measured:
[1] = target: equine choriogonadotropin (eCG) or PMSG (equine) (UniProt P01220); test: ELISA on commercial eCG, antibody at 1 µg/ml
[2] = target: equine choriogonadotropin (eCG) or PMSG (equine) (UniProt P01220); test: ELISA on commercial eCG, antibody at 10 µg/ml

equine choriogonadotropin (eCG) or PMSG (equine), sequence (P01220 25-120 limits assumed, chain 1 of 2): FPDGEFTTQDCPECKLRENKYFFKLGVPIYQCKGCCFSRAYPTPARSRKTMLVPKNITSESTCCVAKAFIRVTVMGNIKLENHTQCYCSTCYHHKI
equine choriogonadotropin (eCG) or PMSG (equine), sequence (P08751 21-169 limits assumed, chain 2 of 2, further chain): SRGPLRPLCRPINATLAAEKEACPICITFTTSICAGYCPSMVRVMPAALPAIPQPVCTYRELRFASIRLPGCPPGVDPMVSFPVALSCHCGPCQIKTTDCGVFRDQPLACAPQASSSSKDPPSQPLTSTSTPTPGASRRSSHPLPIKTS

## isotypic control (IgM directed against another type of antigen very remote from the gonadotropic hormones) (antibody)
[1]
  OD: 0.09 OD
[2]
  OD: 0.09 OD
